Source: the RNAGym collection of RNA variant scans (doi:10.1101/gr.219683.116)

B1: mRNA-splicing (parent)
chain: AGUUGCUGCUGGGAGCUCCAGCACAGUGAAAUGGACAGAAGGGCAGAGCAA

Variants of: B1
Experiment: exon inclusion enrichment index; higher = more inclusion; WT1 exon 5 minigene, HEK293

Variant	exon inclusion enrichment index
AGUUGAAGAAGGGAGCUCCAGCACAGACAAAUGGACAGAAGGGCAGAGCAA [C6A U7A C9A U10A U27A G28C]	0.818
AGUUGAAGAAGGGAGCUCCAGCACAGAUAAAUGGACAGAAGGGCAGAGCAA [C6A U7A C9A U10A U27A G28U]	0.247
AGUUGAAGAAGGGAGCUCCAGCACAGAAAAAUGGACAGAAGGGCAGAGCAA [C6A U7A C9A U10A U27A G28A]	0.824
AGUUGAAGAAGGGAGCUCCAGCACAGUGAAAUGGACAGAAGCCCAGAGCAA [C6A U7A C9A U10A G42C G43C]	1.88
AGUUGAAGAAGGGAGCUCCAGCACAGUGAAAUGGACAGAAGCUCAGAGCAA [C6A U7A C9A U10A G42C G43U]	1.96
AGUUGAAGAAGGGAGCUCCAGCACAGUGAAAUGGACAGAAGCACAGAGCAA [C6A U7A C9A U10A G42C G43A]	1.78
AGUUGAAGAAGGGAGCUCCAGCACAGUGAAAUGGACACGAGGGCAGAGCAA [C6A U7A C9A U10A G38C A39G]	0.734
AGUUGAAGAAGGGAGCUCCAGCACAGUGAAAUGGACACUAGGGCAGAGCAA [C6A U7A C9A U10A G38C A39U]	0.0576
AGUUGAAGAAGGGAGCUCCAGCACAGUGAAAUGGACACCAGGGCAGAGCAA [C6A U7A C9A U10A G38C A39C]	0.874
AGUUGAAGAAGGGAGCUCCAGCACAGUGAAAUGGACAGAACAGCAGAGCAA [C6A U7A C9A U10A G41C G42A]	1
AGUUGAAGAAGGGAGCUCCAGCACAGUGAAAUGGACAGAACUGCAGAGCAA [C6A U7A C9A U10A G41C G42U]	2.17
AGUUGAAGAAGGGAGCUCCAGCACAGUGAAAUGGACAGAACCGCAGAGCAA [C6A U7A C9A U10A G41C G42C]	2.14
AGUUGAAGAAGGGAGCAUCAGCACAGUGAAAUGGACAGAAGGGCAGAGCAA [C6A U7A C9A U10A U17A C18U]	0.445
AGUUGAAGAAGGGAGCAGCAGCACAGUGAAAUGGACAGAAGGGCAGAGCAA [C6A U7A C9A U10A U17A C18G]	0.498
AGUUGAAGAAGGGAGCAACAGCACAGUGAAAUGGACAGAAGGGCAGAGCAA [C6A U7A C9A U10A U17A C18A]	0.427
AGUUGAAGAAGGGAGCUCCAGCACAGUGAAAUGGACAGAAGGAAAGAGCAA [C6A U7A C9A U10A G43A C44A]	1.84
AGUUGAAGAAGGGAGCUCCAGCACAGUGAAAUGGACAGAAGGAUAGAGCAA [C6A U7A C9A U10A G43A C44U]	0.656
AGUUGAAGAAGGGAGCUCCAGCACAGUGAAAUGGACAGAAGGAGAGAGCAA [C6A U7A C9A U10A G43A C44G]	2.4
AGUUGAAGAAGGGAGCUCCAGCACAGGGAAAUGGACAGAAGGGCAGAGCAA [C6A U7A C9A U10A U27G]	0.189
AGUUGAAGAAGGGAGCUCCAGCACAGAGAAAUGGACAGAAGGGCAGAGCAA [C6A U7A C9A U10A U27A]	0.945
AGUUGAAGAAGGGAGCUCCAGCACAGCGAAAUGGACAGAAGGGCAGAGCAA [C6A U7A C9A U10A U27C]	1.97
AGUUGAAGAAGGGAGCCCCAGCACAGUGAAAUGGACAGAAGGGCAGAGCAA [C6A U7A C9A U10A U17C]	0.424
AGUUGAAGAAGGGAGCGCCAGCACAGUGAAAUGGACAGAAGGGCAGAGCAA [C6A U7A C9A U10A U17G]	0.51
AGUUGAAGAAGGGAGCACCAGCACAGUGAAAUGGACAGAAGGGCAGAGCAA [C6A U7A C9A U10A U17A]	0.63
AGUUGAAGAAGGGAGCUCCAGCACAGUGAAAUGGACAGAAUAGCAGAGCAA [C6A U7A C9A U10A G41U G42A]	0.192
AGUUGAAGAAGGGAGCUCCAGCACAGUGAAAUGGACAGAAUUGCAGAGCAA [C6A U7A C9A U10A G41U G42U]	0.717

Variant	exon inclusion enrichment index
AGUUGAAGAAGGGAGCUCCAGCACAGUGAAAUGGACAGAAUCGCAGAGCAA [C6A U7A C9A U10A G41U G42C]	1.58
AGUUGAAGAAGGGAGCUCCAGCACAGUGAAAUGGACAGAAGGUGAGAGCAA [C6A U7A C9A U10A G43U C44G]	0.238
AGUUGAAGAAGGGAGCUCCAGCACAGUGAAAUGGACAGAAGGUUAGAGCAA [C6A U7A C9A U10A G43U C44U]	0.125
AGUUGAAGAAGGGAGCUCCAGCACAGUGAAAUGGACAGAAGGUAAGAGCAA [C6A U7A C9A U10A G43U C44A]	0.0263
AGUUGAAGAAGGGAGCUCCAGCACAGUGAAAUGGACAGAAGACCAGAGCAA [C6A U7A C9A U10A G42A G43C]	3.53
AGUUGAAGAAGGGAGCUCCAGCACAGUGAAAUGGACAGAAGAUCAGAGCAA [C6A U7A C9A U10A G42A G43U]	2.73
AGUUGAAGAAGGGAGCUCCAGCACAGUGAAAUGGACAGAAGAACAGAGCAA [C6A U7A C9A U10A G42A G43A]	2.97
AGUUGAAGAAGGGAGCUCCAGCACAGUGAAAAUGACAGAAGGGCAGAGCAA [C6A U7A C9A U10A U32A G33U]	0.298
AGUUGAAGAAGGGAGCUCCAGCACAGUGAAAACGACAGAAGGGCAGAGCAA [C6A U7A C9A U10A U32A G33C]	0.991
AGUUGAAGAAGGGAGCUCCAGCACAGUGAAAAAGACAGAAGGGCAGAGCAA [C6A U7A C9A U10A U32A G33A]	0.234
AGUUGAAGAAGGGAGCUCCAGCACAGUGAAAUGGACACAAGGGCAGAGCAA [C6A U7A C9A U10A G38C]	0.524
AGUUGAAGAAGGGAGCUCCAGCACAGUGAAAUGGACAUAAGGGCAGAGCAA [C6A U7A C9A U10A G38U]	0.223
AGUUGAAGAAGGGAGCGGCAGCACAGUGAAAUGGACAGAAGGGCAGAGCAA [C6A U7A C9A U10A U17G C18G]	0.391
AGUUGAAGAAGGGAGCGUCAGCACAGUGAAAUGGACAGAAGGGCAGAGCAA [C6A U7A C9A U10A U17G C18U]	0.46
AGUUGAAGAAGGGAGCGACAGCACAGUGAAAUGGACAGAAGGGCAGAGCAA [C6A U7A C9A U10A U17G C18A]	0.619
AGUUGAAGAAGGGAGCUCCAGCACAGUGAAAUGGACAGAAGGGCAUAGCAA [C6A U7A C9A U10A G46U]	0.388
AGUUGAAGAAGGGAGCUCCAGCACAGUGAAAUGGACAGAAGGGCACAGCAA [C6A U7A C9A U10A G46C]	0.722
AGUUGAAGAAGGGAGCUCCAGCACAGUGAAAUGGACAGAAGGGCAAAGCAA [C6A U7A C9A U10A G46A]	0.993
AGUUGAAGAAGGGAGCUCCAGCACAGUGAAAUGGACAGAAGGUCAGAGCAA [C6A U7A C9A U10A G43U]	0.644
AGUUGAAGAAGGGAGCUCCAGCACAGUGAAAUGGACAGAAGGCCAGAGCAA [C6A U7A C9A U10A G43C]	1
AGUUGAAGAAGGGAGCUCCAGCACAGUGAAAUGGACAGAAGGACAGAGCAA [C6A U7A C9A U10A G43A]	2.02
AGUUGAAGAAGGGAGCUCCAGCACAGUGAAAUGGACAGAAGGCAAGAGCAA [C6A U7A C9A U10A G43C C44A]	2.09
AGUUGAAGAAGGGAGCUCCAGCACAGUGAAAUGGACAGAAGGCGAGAGCAA [C6A U7A C9A U10A G43C C44G]	3.16
AGUUGAAGAAGGGAGCUCCAGCACAGUGAAAUGGACAGAAGGCUAGAGCAA [C6A U7A C9A U10A G43C C44U]	0.606
AGUUGAAGAAGGGAGCUCCAGCACAGUGAAAUGGACAUUAGGGCAGAGCAA [C6A U7A C9A U10A G38U A39U]	0.0139
